System: c-Src
Experiment: phosphorylation enrichment, bacterial display (enrichment ratio); higher = better substrate or ligand; peptides without Tyr show the background
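Wherever SH2 binding enrichment of the phosphorylated peptide, bacterial display is given: peptide library displayed on the E. coli surface as eCPX fusions, selected cells deep-sequenced, score is each peptide's frequency after selection divided by its frequency in the input.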
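Wherever phosphorylation enrichment, bacterial display is given: 11-residue human phosphosite peptides and single-mutation variants displayed on the E. coli surface, counted by deep sequencing, each peptide's frequency after selection divided by its frequency in the unselected input library; frequency after pTyr selection over input frequency; kinase dosed for 20-30% of maximal phosphorylation in three min.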

| Sequence | phosphorylation enrichment |
| --- | --- |
| VLPIDYFFPPQ [AR_Y552_YF] | 0.522 |
| GRTNIYKNKKD [SLC26A3_Y520] | 0.434 |
| RLLRGYDQSAF [HLA-C_Y137_YF] | 0.459 |
| RPSELYYSKIG [SMG1_Y2253] | 5.63 |
| VTQEQYELHCE [CBL_Y368_Y371H] | 0.52 |
| KWHREYNSKFV [RICTOR_Y835_YF] | 0.334 |
| SGRSGYCLGTR [SCO1_Y60_P58S] | 0.424 |
| QADVTYVNTQL [MERTK_Y872_I871T] | 0.682 |
| GPIIRYDLGGA [CYP11B1_Y81_F79I] | 0.405 |
| IIGNGYFFRVF [MYBPC3_Y1135_YF] | 0.288 |
| TTSQPYRCLCS [USH2A_Y534] | 0.562 |
| DLDATYRPMYS [JUP_Y701_M697L] | 0.569 |
| WIGRKYKKVRF [F8_Y442_R437W] | 0.619 |
| DLDTEYGSGYP [RNASEH2A_Y206_D205E] | 0.549 |
| AGRSGYDNREI [BCL2_Y9_T7S] | 0.394 |
| SFCFRYCCAAR [SUMF1_Y344_R345C_YF] | 0.397 |
| AGTILYHAHLD [ASS1_Y291] | 0.451 |
| ALWYIYLHTRS [ENG_Y614_S615L] | 0.331 |
| FNDSAYNQQLI [ZPLD1_Y198_T197A_YF] | 0.421 |
| ETDTRYFDEEF [AKT1_Y437] | 0.679 |
| LDVDVYGPSVP [NUBPL_Y109] | 1.33 |
| LTELGYSFVTT [ACTA1_Y200_R198L] | 1.11 |
| FPKARYHWLVL [APTX_Y214_YF] | 0.39 |
| SLDLSYYHTSS [EMD_Y181_P183H] | 0.524 |
| LVRAFYCERRR [CARD11_Y970] | 0.988 |
| RPFFLYVAFHD [SGSH_Y174] | 0.43 |
| RRNTFYASIAK [ACADM_Y353_YF] | 0.638 |
| ISGLKYPVSQQ [BTK_Y375_R372G] | 0.407 |
| VLALWYFFLTH [ZDHHC23_Y127_YF] | 0.602 |

Molecular target: Grb2 SH2 (UniProt P62993)
Experiment: SH2 binding enrichment of the phosphorylated peptide, bacterial display (enrichment ratio); higher = better substrate or ligand; peptides without Tyr show the background

Sequence of Grb2 SH2 (P62993 whole entry, looked up): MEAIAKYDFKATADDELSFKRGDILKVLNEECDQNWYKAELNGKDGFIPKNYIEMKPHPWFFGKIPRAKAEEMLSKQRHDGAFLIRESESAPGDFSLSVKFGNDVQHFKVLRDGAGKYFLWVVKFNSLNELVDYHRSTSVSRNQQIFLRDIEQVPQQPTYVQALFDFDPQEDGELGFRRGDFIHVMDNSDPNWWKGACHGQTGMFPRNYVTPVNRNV

| Sequence | SH2 binding enrichment |
| --- | --- |
| VLPIDYFFPPQ [AR_Y552_YF] | 0.986 |
| GRTNIYKNKKD [SLC26A3_Y520] | 1.07 |
| RLLRGYDQSAF [HLA-C_Y137_YF] | 1.26 |
| RPSELYYSKIG [SMG1_Y2253] | 0.758 |
| VTQEQYELHCE [CBL_Y368_Y371H] | 0.656 |
| KWHREYNSKFV [RICTOR_Y835_YF] | 1.11 |
| SGRSGYCLGTR [SCO1_Y60_P58S] | 1.19 |
| QADVTYVNTQL [MERTK_Y872_I871T] | 14.4 |
| GPIIRYDLGGA [CYP11B1_Y81_F79I] | 0.645 |
| IIGNGYFFRVF [MYBPC3_Y1135_YF] | 0.815 |
| TTSQPYRCLCS [USH2A_Y534] | 1.24 |
| DLDATYRPMYS [JUP_Y701_M697L] | 0.798 |
| WIGRKYKKVRF [F8_Y442_R437W] | 1.28 |
| DLDTEYGSGYP [RNASEH2A_Y206_D205E] | 0.7 |
| AGRSGYDNREI [BCL2_Y9_T7S] | 0.731 |
| SFCFRYCCAAR [SUMF1_Y344_R345C_YF] | 1.02 |
| AGTILYHAHLD [ASS1_Y291] | 0.949 |
| ALWYIYLHTRS [ENG_Y614_S615L] | 0.641 |
| FNDSAYNQQLI [ZPLD1_Y198_T197A_YF] | 0.705 |
| ETDTRYFDEEF [AKT1_Y437] | 0.902 |
| LDVDVYGPSVP [NUBPL_Y109] | 0.868 |
| LTELGYSFVTT [ACTA1_Y200_R198L] | 0.797 |
| FPKARYHWLVL [APTX_Y214_YF] | 1.5 |
| SLDLSYYHTSS [EMD_Y181_P183H] | 0.746 |
| LVRAFYCERRR [CARD11_Y970] | 0.383 |
| RPFFLYVAFHD [SGSH_Y174] | 0.847 |
| RRNTFYASIAK [ACADM_Y353_YF] | 0.772 |
| ISGLKYPVSQQ [BTK_Y375_R372G] | 0.879 |
| VLALWYFFLTH [ZDHHC23_Y127_YF] | 1.28 |

Molecular target: SHP2-C SH2
Experiment: as above

| Sequence | SH2 binding enrichment |
| --- | --- |
| VLPIDYFFPPQ [AR_Y552_YF] | 0.882 |
| GRTNIYKNKKD [SLC26A3_Y520] | 0.832 |
| RLLRGYDQSAF [HLA-C_Y137_YF] | 0.953 |
| RPSELYYSKIG [SMG1_Y2253] | 1.1 |
| VTQEQYELHCE [CBL_Y368_Y371H] | 0.48 |
| KWHREYNSKFV [RICTOR_Y835_YF] | 1.18 |
| SGRSGYCLGTR [SCO1_Y60_P58S] | 0.752 |
| QADVTYVNTQL [MERTK_Y872_I871T] | 0.84 |
| GPIIRYDLGGA [CYP11B1_Y81_F79I] | 0.851 |
| IIGNGYFFRVF [MYBPC3_Y1135_YF] | 0.766 |
| TTSQPYRCLCS [USH2A_Y534] | 0.992 |
| DLDATYRPMYS [JUP_Y701_M697L] | 0.832 |
| WIGRKYKKVRF [F8_Y442_R437W] | 0.456 |
| DLDTEYGSGYP [RNASEH2A_Y206_D205E] | 0.464 |
| AGRSGYDNREI [BCL2_Y9_T7S] | 0.757 |
| SFCFRYCCAAR [SUMF1_Y344_R345C_YF] | 0.764 |
| AGTILYHAHLD [ASS1_Y291] | 0.74 |
| ALWYIYLHTRS [ENG_Y614_S615L] | 0.607 |
| FNDSAYNQQLI [ZPLD1_Y198_T197A_YF] | 0.423 |
| ETDTRYFDEEF [AKT1_Y437] | 0.916 |
| LDVDVYGPSVP [NUBPL_Y109] | 0.551 |
| LTELGYSFVTT [ACTA1_Y200_R198L] | 3.2 |
| FPKARYHWLVL [APTX_Y214_YF] | 1.94 |
| SLDLSYYHTSS [EMD_Y181_P183H] | 0.692 |
| LVRAFYCERRR [CARD11_Y970] | 0.449 |
| RPFFLYVAFHD [SGSH_Y174] | 0.377 |
| RRNTFYASIAK [ACADM_Y353_YF] | 1.68 |
| ISGLKYPVSQQ [BTK_Y375_R372G] | 0.63 |
| VLALWYFFLTH [ZDHHC23_Y127_YF] | 1.16 |

Molecular target: c-Src SH2
Experiment: as above

| Sequence | SH2 binding enrichment |
| --- | --- |
| VLPIDYFFPPQ [AR_Y552_YF] | 0.696 |
| GRTNIYKNKKD [SLC26A3_Y520] | 0.802 |
| RLLRGYDQSAF [HLA-C_Y137_YF] | 0.758 |
| RPSELYYSKIG [SMG1_Y2253] | 4.1 |
| VTQEQYELHCE [CBL_Y368_Y371H] | 0.571 |
| KWHREYNSKFV [RICTOR_Y835_YF] | 1.19 |
| SGRSGYCLGTR [SCO1_Y60_P58S] | 1.01 |
| QADVTYVNTQL [MERTK_Y872_I871T] | 0.964 |
| GPIIRYDLGGA [CYP11B1_Y81_F79I] | 0.495 |
| IIGNGYFFRVF [MYBPC3_Y1135_YF] | 0.453 |
| TTSQPYRCLCS [USH2A_Y534] | 0.653 |
| DLDATYRPMYS [JUP_Y701_M697L] | 0.502 |
| WIGRKYKKVRF [F8_Y442_R437W] | 0.388 |
| DLDTEYGSGYP [RNASEH2A_Y206_D205E] | 0.531 |
| AGRSGYDNREI [BCL2_Y9_T7S] | 0.494 |
| SFCFRYCCAAR [SUMF1_Y344_R345C_YF] | 0.755 |
| AGTILYHAHLD [ASS1_Y291] | 0.477 |
| ALWYIYLHTRS [ENG_Y614_S615L] | 0.521 |
| FNDSAYNQQLI [ZPLD1_Y198_T197A_YF] | 0.431 |
| ETDTRYFDEEF [AKT1_Y437] | 0.775 |
| LDVDVYGPSVP [NUBPL_Y109] | 0.498 |
| LTELGYSFVTT [ACTA1_Y200_R198L] | 8.8 |
| FPKARYHWLVL [APTX_Y214_YF] | 1.42 |
| SLDLSYYHTSS [EMD_Y181_P183H] | 0.867 |
| LVRAFYCERRR [CARD11_Y970] | 0.243 |
| RPFFLYVAFHD [SGSH_Y174] | 0.581 |
| RRNTFYASIAK [ACADM_Y353_YF] | 1.09 |
| ISGLKYPVSQQ [BTK_Y375_R372G] | 0.417 |
| VLALWYFFLTH [ZDHHC23_Y127_YF] | 1.06 |

— the supplement of paper PMC10065799, “High-throughput profiling of sequence recognition by tyrosine kinases and SH2 domains using bacterial peptide display” (eLife, 2023)
